The values that follow come from the DeepSol protein solubility set.

The data set can be described thus: soluble on expression in E. coli; label from the status in PepcDB or PDB records.
In the case of “MLYALLLLFGGVSTVSSLRVAVVGEGVIGLSTATAILDLAEKRNIPAPEIHIFHHKPFEKILSRHIAGLFRIDSGSEIDRKYGYDTFEKLATLWREYGGLSGVQLVSGHILSDSKTKLDSQRESYGSLVYNYRDLAEPELFGPTSLFDLPRNTTTRGIHYTAYTSEGLRFCPFLKKELMTKGVRFTQRRIGNLEELGAEFDVVVNSAGLLGGVLAGDDAGNMKPIRGVLIRVDAPWQKHFLYRDFSTITIPVIDHVYMGTVKQEGAFGPNNVTSADIQDITSRYVALQPSFKRVHMLSSFVGYRPGRKQVRVEKQIRETNGSKKFTVVHNYGHSGNGFTLGYGSAVHAAHIVLDLPLDAYHGLVPEPLPINATISEWVKYLDD”, the “soluble on expression in E. coli” value is reported as “not soluble”.
Turning to “MLYREHHSWIYTWLYRRLGNSADAADLAQDTFIRVITRKSLLEIEQPRAYLTTVAKSLMLNWFNRRNIEQAYLEVLANQPEFEHPSPEQRYLIVETLIEVIQLLDTLPDQIRDVFLHAQLENMNYQQIADQFNLSLSTVKRHIKKAYIHCLTAMLDTDFSC”, the “soluble on expression in E. coli” value is recorded as “not soluble”.
To “MMCTAKKCGIRFQPPAIILIYESEIKGKIRQRIMPVRNFSKFSDCTRAAEQLKNNPRHKSYLEQVSLRQLEKLFSFLRGYLSGQSLAETMEQIQRETTIDPEEDLNKLDDKELAKRKSIMDELFEKNQKKKDDPNFVYDIEVEFPQDDQLQSCGWDTESADEF” belongs “soluble”; to “MMDFSHIVSEDKIKRAIKDGDFQNLPGMGKPLPKMTRHTCRNRCAWAIVFLEHHHHHH”, “not soluble”.
Regarding “MMDKNQLEQEFHKAMLNIYQEALNLPQPYKATRFLQIVNEFGGKEAADKLLSTGEKKTQTGFTELILSGGGVHALKYSMEYLVLQKPWCDLFTEEQLAVARKRLERVGFVFPK”, the “soluble on expression in E. coli” value was “not soluble”.
Turning to “MMELETGQCTIMELKKENVKELAQVFKTVAFKDTGTWHASEAGMKITVDDGSYQLASVFINPAFFSSFKVREEIVSMKISIKSISEFLSISENSSSSVKVSYPGMFQPVKMLVEDADGWVARGNFTTTLADQELDFEFDDAGVLATYLLKTQVLKEIIKDFDDTSRTVRIQFTKNSLCFTTFGDVGETTVSIPSRSLQMESVKCLEEVEFSYLLSLIQRMTTAFILATKLILRVDERGVLSCQFSIDHGEGNASYIEFLTVPADEEE”, the “soluble on expression in E. coli” value is “not soluble”.
“MMGTAWPPPELADVFAQQDIWSAWYAGTPEGLTDAYLNAPNDRPAARRKGLLARLGRWFWGQPTPMGERPSKLHVPLAGAIAAVSANLLFGAPLNLTVDDAATQERLDQLADDTTYAVLREAAEMSAALGGVYLRVVWDQSIQDKPWLVAASPDIAVPEWKWGRLSAVTFWNVIREDANTVVRQLERHEPGWIRHSVWIGSANELGVQMALTDFPETAGLADLVIDGDGIPTGTPKLTAQYIPNLKPNKLWRHLPAAANLGRSDFSGVEALMDALDEAYSDWMRDLRTGKARLLVGTEVLENLGKGQGAHFDIDRELFAPLNLEPGEDKGSVIEQVQFNIRTEEHRALCADLAERIILGAGYSLQTFGVTSEGSGNPTATEIAARERQSLTTRANKTSYWRPALAHLFGVLLEIDRTVFRSQVVPQIPDVEFPDVVTPDPGETARQLNDLNTAGAISTYEKVRRLNPDWRDEQVLEEVARIKADQAEAKPQPTHPARAQEPAGQPEKSPEGSQVNEDVSEPLVAR”: the “soluble on expression in E. coli” value is on record as “not soluble”.
As for “MMIEGLEKMLAKGVDNALLRFGLGKGYLDAGDAERAAEHLQRCVEQDPKYSAGWKLLGKARQAAGDLAGARQAWEQGLATAATHGDKQAEKEMTVFLRKLDRART”, the entry is “not soluble”; as for “MMKALILAGGSGERFWPLSTPETPKQFLKLFGNKSLMRWTFERVLEEMDPKDVIVVTHKDYVERTKKELPELPDENIIAEPMKKNTAPACFIGTKLADDDEPVLVLPADHRIPDTKKFWKTVKKALDALEKYDGLFTFGIVPTRPETGYGYIEIGEELEEGVHKVAQFREKPDLETAKKFVESGRFLWNSGMFLWKAREFIEEVKVCEPSIYENLKDVDPRNFEELKKAYEKVPSISVDYAVMEKSKKVRVVKADFEWSDVGNWSSVREIEGYTEESDEVILVDSDRVFVKTHNKPIAVVGLSDVIVIDTPNGILICKEEYAQKVREVVKKLFRTS”, “soluble”.
As for “MMKQIPYGLTDFARIQKDNYYYVDKTMFIERIEMQPAYLFLIRPRRFGKSLTLAMLEAYYDVVYANDFDELFGHLYIGQHPTPKHNCYLIMRFNFSEVSSNVNEVERSFKLHCCSKLRDFVFKYEDLLGKEIWDVLDEEIQQDPGAFLSAINSYASRKGNLPIYLLIDEYDNFTNTILSTYGTEYYQKATHGEGFVRGFFNVIKAATTGTGSALQRMFITGVSPVTMDDVTSGFNIGTNITTDPWFNDLVGFSEAELREMLTYYKEQGVLMQTVDETIVMMKPNYDNYCFSRSRLADCMFNSDMVLYFMKSFVLHGEKPDEIVDPNIRTDFNKLAYLIRLDHGLGENFSVIKEIAEQGEITTDIATHFSALEMTDVRNFKSLLFYFGLLSIKGVDMVGRPILHVPNLVVREQLFSFLIQGYIKHDIFKIDMNRMTMLFENMAFRGDWKPLFNFIAEAIREQSRIREYIEGEAHIKGFLLAYLGMYRYYQLYPEYELNKGFADFLFKPSPSVPVMPPLTYLLEVKYAKAGASEKEIRALADGAREQLLRYSQDELVTEARAKGGLKLITIVWCSWELVLLEEVL”, the entry is “not soluble”; as for “MMKRQTWPEPTIPVSQQFARGNFPVGIICEHPGEVNAYRYSSEEKRAMEHATEEQVQDLRCAAEVHRQVRRYAQSFIKPGISLLSMTDRIEKKLEELIEKDGLNRGQAFPTGCSLNHVAAHYTPNTGDKCVLMYDDVMKVDFGTQINGRIIDCAWTVAFKDEYEPLLTAVKEATYEGVKQAGIDVRLCDVGAAIQEVMESYEVELNGKVYPVKSIRNLSGHTIAPYVIHGGKSVPIVRGGEATRMEEGELFAIETFGSTGRGFVQEDMECSHYMMVPGGEKTQVRSDKAQQLLRHIHKTYNTLAFARKWLDRDGHDRHLLNLNQLVEAGAVNKYPPLCDIRGCYTAQLEHTLILKPTAKEILSKGDDY”, “not soluble”.
Turning to “MMKTLSPLKASLFAILASSTVLVTTVSAEPSQECDHPRSEFHKRGDRMGHDGMHKMFEGLELTDTQKADIKKLFAEQRAARSDDKPTKEERLARRAEMHALITAATFDETQAKALIGAQQEKRQAQAIERMKMQNQIYNLLTPEQQAKFKARFEAHTGKEPRSLEHHHHHH”, the “soluble on expression in E. coli” value is on record as “not soluble”.
As for “MMLAMIKDPFARLGLDREVLTVSQLNGRARVLLEDVFSSIWVEGEISNLSRPASGHVYFTLKDSGAQVRCALFRQSAARVRQALKDGLQVKVRGKVSLFEGRGDYQLILDTVEPAGDGALRLAFDALKAKLSDEGLFSADRKVALPLHPQRIGIISSPTGAVIRDIISVFRRRAPRVELTLIPTAVQGREAINQIVRALKLADARGFDALILARGGGSLEDLWCFNEEAVARAIDACVTPIVSAVGHETDVSISDFVADVRAPTPSAAAELLAPDSSDLHRRVDNLHRRLVSRMQDRLMRERLRLEGISRRLRHPGERLRQQSQRLDDLDMRLRRAFEQSMHKKQVRLAHMESRLTAQHPGRTLAFLRQRLDALAERLPRAIREQIKVRKLQLQSQMQTLNVVSPLATLGRGYSILLDERGHAIRNAAQTQPGQRLTARLGEGELQVRVEDNHLTPVTLSLLD”, the entry is “not soluble”; as for “MMLITDTGVPERYIDTDEWGGEVMLRLDDGWCAALDRNTMMCTIYEKRPLICREFEAGAEDCLTERKGIATAYLLEHHHHHH”, “not soluble”.
To “MMLRTEEMILNVGPQHPSTHGVFRLILKIDGEIIQEATPVIGYLHRGTEKIAEGLQYTQIIPYTDRMDYLSAMTNNYVLCHAVETMMGIEVPERAEYLRVLAMELGRIASHLVWWGTYLLDLGATSPFLYAFREREMIINLLNELSGARLTFNYMRIGGVKWDAPDGWIDKVKQFVPYMREKLHGYHELVTGNEIFRQRVTGVGRYTKEEAISYSLSGVNLRSTGVKWDLRKDEPYSIYDRFDFDVPVRDSGDCLARYECRMAEIEQSLCIIEQACEQFPPEGPIMGKVPRIIKAPPGETFVRIEAPRGEIGCYIASDGKKEPYRLKFRRPSFYNLQILPKLLKGENLANVIAILGSIDIVLGEVDG” belongs “not soluble”; to “MMLSALVYTYPYKRSSGFERLRDRIHRKRHRHQKPSVMNETDELYEMSMVTQKSDDDSDLASRIRSEKSIPSTLTTPPTVTYHRRHHHHHKKNRREKNEELCESQRKIVELNTQSHEFDPPFVVEVRCLNSQSPIGSLLSGQEQTCFKGMLRCVQQYADVHVSRRSVGSIHWHPFTIPDAPISCQCMWPVDRYGHQEF”, “soluble”.
As for “MMMDILMYLFETYVHSDADLQVDQDQLEDELLRAGFHQKDIYKALHWLEELAALQQTDAQTAIAKSAPTSMRIYAPEEIERLDLESRGFLLFLEHINVLTPETREMVIDRVMGLETDEFELDDLKWIILMVLFNVPGNENAYTVMEELLYSKEQGILH”, the “soluble on expression in E. coli” value is recorded as “not soluble”.
With “MMNALELQALRRIFDMTIEECTIYITQDNNSATWQRWEAGDIPISPEIIARLKEMKARRQRRINAIVDKINNRIGNNTMRYFPDLSSFQSIYTEGDFIEWKIYQSVAAELFAHDLERLC”, the “soluble on expression in E. coli” value is reported as “soluble”.
To “MMNEKNPPLVSILIPTYNRPHYFKIALESALAQTYSNIEIIIGDDSTNDETATLIREQYLPNYKNITYIRNTPTLGQFHNDLMLIEKSNGEYINFLMDDDVFYKHKIQKMMTYFEQDPNKNLALVTSYRVRIDDHGNLIGDSHPTQRLYSEDTPLNGIFLGNWMLKGGHNIIGEPTTTLFRKELLTEPFGTLKERQYSCSVDMASWISLLSKGNAIYISEPLSQFRYHAGQQIHNKLLQGCEDFTHLVITAKEYGFLQNTTDYRAALLSAYQWCKSSLKYYLHQLDIFPDAHVRLSHCLDIIIKELNNLEHHHHHH” belongs “soluble”; to “MMNKNKKLMVMAGGTGGHVFPGLAVAKQLQQQGWQIRWLGTADRMEAELVPKHGIEIDFIQVKGLRGQGLMRLLKAPFQIVNAILQARRHLLTYQPDAVLGMGGYVSGPGGIAAWLLGIPVVLHEQNAVAGLTNQWLAKIARRVFQAFPGAFADASVVGNPVRQDVVQLAAPEQRFATRNGAIRILVMGGSQGARILNQTLPAVMAALGEGYEIRHQAGKNSQQDVAEAYAAAGVESAQVTEFIDDVADAYAWADLLICRSGALTVSEVSAAGVGAIFIPFMHKDRQQALNADHLVACGAAKMIEQPELSVEKLTQMVRELDRAQLLSMAQKARQAAKLDADKVVAQAIIAITE”, “not soluble”; to “MMRKLKTLPPTLRDKNRYIAFEIISDGDFTKDEVKELIWKSSLEVLGETGTAIVKPWLIKFDPNTKTGIVRSDREYVEYLRFALMLVSEFNGKRLIIRTLGVSGTIKRLKRKFLAKYGWK”, “soluble”.
For the sequence “MMRRILLKSIKFYRIYLSPLKRNACCKFIPTCSQYAIDAIEKYGALKGSFMAVKRILRCNPFSKGGYDPVKLEHHHHHH”, the “soluble on expression in E. coli” value is on record as “not soluble”.
For the sequence “MMSIAQVRSAGSAGNFYTDKDNYYVLGSMGERWAGRGAEQLGLQGSVDKDVFTRLLEGRLPDGADLSRMQDGSNRHRPGYDLTFSAPKSVSMMAMLGGDKRLIDAHNQAVDFAVRQVEALASTRVMTDGQSETVLTGNLVMALFNHDTSRDQEPQLHTHAVVANVTQHNGEWKTLSSDKVGKTGFIENVYANQIAFGRLYREKLKEQVEALGYETEVVGKHGMWEMPGVPVEAFSGRSQTIREAVGEDASLKSRDVAALDTRKSKQHVDPEIKMAEWMQTLKETGFDIRAYRDAADQRADS”, the “soluble on expression in E. coli” value is “soluble”.
